The values that follow come from the supplement of paper PMC10724198.

± gives the standard deviation of the averaged measurements.

Series [1] deals with Saccharomyces cerevisiae. Put plainly: protein stability index of tFT-peptide fusion (C-terminal peptide) (PSI (0-1 scale)); higher = more stable (slower turnover). The note with it: genetic background: wild type; temperature: 30 C.
The test system of series [2] is Saccharomyces cerevisiae. The series is described as above. The method, then: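 MPS profiling in S. cerevisiae of the tFT-X12 degron library: putative degron peptides plus stable controls, 12 aa, fused to the C-terminus of a sfGFP-mCherry timer. Cells are FACS-sorted into 8 mCherry/sfGFP bins and deep-sequenced. PSI runs from 0 (unstable) to 1 (stable). Backgrounds are wild type, das1Δ and doa10Δ at 30 °C, and wild type, das1Δ, cdc34-1 and cdc53-1 at 37 °C; 2-3 technical replicates each.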

Where [3] appears, read: genetic background: cdc34-1, temperature: 37 C.
[4] abbreviates: genetic background: cdc53-1, temperature: 37 C.
Setting [5] is: genetic background: das1 deletion, temperature: 30 C.
Where [6] appears, read: genetic background: das1 deletion, temperature: 37 C.
The mark [7] stands for this setting: genetic background: doa10 deletion, temperature: 30 C.
[8] abbreviates: genetic background: wild type, temperature: 30 C.
[9] abbreviates: genetic background: wild type, temperature: 37 C.
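Note: PSI is a weighted mean of sequencing reads over stability bins, variants kept only with over 10 reads, mCherry proximal and sfGFP distal, peptide attached via GGGS linker.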

For the sequence FRCPHAVKLVLV, the protein stability index in series [1] amounted to 0.311 ± 0.02; in series [2] (setting [3]), 0.384 ± 0.021; in series [2] (setting [4]), 0.404 ± 0.016; in series [2] (setting [5]), 0.328 ± 0.037; in series [2] (setting [6]), 0.471 ± 0.011; in series [2] (setting [7]), 0.1947 ± 0.0014. Moreover, the protein stability index in series [2] (setting [8]) is 0.214 ± 0.018; in series [2] (setting [9]), 0.33212 ± 0.00028.

Turning to FRFSSLLYILLS, the protein stability index came to 0.0959 ± 0.022 in series [1]; 0.223 ± 0.067 in series [2] (setting [3]); 0.274 ± 0.018 in series [2] (setting [4]); 0.316 ± 0.017 in series [2] (setting [5]); 0.402 ± 0.016 in series [2] (setting [6]); 0.0923 ± 0.012 in series [2] (setting [7]). The protein stability index in series [2] (setting [8]) was 0.0651 ± 0.018; in series [2] (setting [9]) it was 0.0868 ± 0.021.

Consider FRTTGQAPPSKP, for which the protein stability index in series [1] was 0.568 ± 0.2; in series [2] (setting [3]), 0.674 ± 0.064; in series [2] (setting [4]) it was 0.743 ± 0.013; in series [2] (setting [5]), 0.633 ± 0.013; in series [2] (setting [6]) it was 0.727 ± 0.022; in series [2] (setting [7]), 0.64 ± 0.038. Further, the protein stability index in series [2] (setting [8]) worked out at 0.6444 ± 0.0056; in series [2] (setting [9]) it was 0.71966 ± 0.0003.

As to FSLRLFLVLALS, the protein stability index was 0.193 ± 0.0034 in series [1]; 0.3032 ± 0.0029 in series [2] (setting [3]); 0.377 ± 0.01 in series [2] (setting [4]); 0.261 ± 0.021 in series [2] (setting [5]); 0.395 ± 0.012 in series [2] (setting [6]); 0.123 ± 0.013 in series [2] (setting [7]). Further, the figures for the protein stability index in series [2] (setting [8]) and in series [2] (setting [9]) were 0.154 ± 0.028 and 0.227 ± 0.0026, respectively.

Turning to FSVTTLTILCLR, the protein stability index in series [1] amounted to 0.3497 ± 0.0014; in series [2] (setting [3]), 0.305 ± 0.017; in series [2] (setting [4]), 0.329 ± 0.011; in series [2] (setting [5]), 0.273 ± 0.029; in series [2] (setting [6]), 0.394 ± 0.017; in series [2] (setting [7]), 0.49 ± 0.061. Also, the protein stability index in series [2] (setting [8]) stood at 0.277 ± 0.02; in series [2] (setting [9]), 0.382 ± 0.0086.

FSYLSFLPSLAA: the protein stability index in series [1] came out at 0.527 ± 0.048; in series [2] (setting [3]), 0.545 ± 0.049; in series [2] (setting [4]), 0.562 ± 0.034; in series [2] (setting [5]), 0.466 ± 0.031; in series [2] (setting [6]), 0.599 ± 0.017; in series [2] (setting [7]), 0.442 ± 0.0053. The results for the protein stability index in series [2] (setting [8]) and in series [2] (setting [9]) were 0.468 ± 0.0066 and 0.5654 ± 0.0021, respectively.

On to FTFPLPPSLLLV, for which the protein stability index is 0.347 ± 0.017 in series [1]; 0.378 ± 0.023 in series [2] (setting [3]); 0.389 ± 0.0036 in series [2] (setting [4]); 0.322 ± 0.021 in series [2] (setting [5]); 0.456 ± 0.011 in series [2] (setting [6]); 0.2603 ± 0.00082 in series [2] (setting [7]). For the same sequence, the protein stability index stood at 0.233 ± 0.028 in series [2] (setting [8]) and 0.37 ± 0.0071 in series [2] (setting [9]).

For FTGLCQGLWLGW, the protein stability index in series [1] worked out at 0.738 ± 0.025; in series [2] (setting [3]) it was 0.691 ± 0.019; in series [2] (setting [4]) it was 0.743 ± 0.014; in series [2] (setting [5]), 0.658 ± 0.059; in series [2] (setting [6]), 0.775 ± 0.02; in series [2] (setting [7]), 0.684 ± 0.039. The protein stability index in series [2] (setting [8]) was found to be 0.649 ± 0.013; in series [2] (setting [9]), 0.7501 ± 0.0044.

Take FVCLCGFLQVLS: the protein stability index in series [1] worked out at 0.489 ± 0.0078; in series [2] (setting [3]), 0.517 ± 0.018; in series [2] (setting [4]) it was 0.564 ± 0.038; in series [2] (setting [5]), 0.395 ± 0.036; in series [2] (setting [6]), 0.632 ± 0.04; in series [2] (setting [7]), 0.3687 ± 0.0013. Further, the protein stability index in series [2] (setting [8]) came out at 0.411 ± 0.028; in series [2] (setting [9]) it was 0.526 ± 0.028.

In the case of FVLWWGWSWLVV, the protein stability index in series [1] is 0.235 ± 0.019; in series [2] (setting [3]) it was 0.213 ± 0.01; in series [2] (setting [4]) it was 0.30626 ± 6.5e-05; in series [2] (setting [5]) it was 0.173 ± 0.027; in series [2] (setting [6]) it was 0.318 ± 0.0055; in series [2] (setting [7]), 0.152 ± 0.0023. Also, the protein stability index came out at 0.16 ± 0.016 in series [2] (setting [8]) and 0.2824 ± 0.00063 in series [2] (setting [9]).

Regarding FVRVFLRLGVVS, the protein stability index in series [1] amounted to 0.299 ± 0.027; in series [2] (setting [3]) it was 0.14 ± 0.024; in series [2] (setting [4]) it was 0.17 ± 0.039; in series [2] (setting [5]), 0.194 ± 0.035; in series [2] (setting [6]) it was 0.302 ± 0.019; in series [2] (setting [7]) it was 0.175 ± 0.0045. The protein stability index in series [2] (setting [8]) turned out to be 0.177 ± 0.022; in series [2] (setting [9]) it was 0.256 ± 0.0033.

Turning to FVSVWVFLVSSF, the protein stability index was 0.312 ± 0.024 in series [1]; 0.258 ± 0.025 in series [2] (setting [3]); 0.381 ± 0.019 in series [2] (setting [4]); 0.248 ± 0.032 in series [2] (setting [5]); 0.457 ± 0.014 in series [2] (setting [6]); 0.194 ± 0.017 in series [2] (setting [7]). For the same sequence, the figures for the protein stability index in series [2] (setting [8]) and in series [2] (setting [9]) were 0.225 ± 0.035 and 0.401 ± 0.039, respectively.

Take FVVQSLNQMRLN: the protein stability index in series [1] came to 0.441 ± 0.034; in series [2] (setting [3]), 0.693 ± 0.025; in series [2] (setting [4]), 0.727 ± 0.02; in series [2] (setting [5]), 0.656 ± 0.035; in series [2] (setting [6]) it was 0.718 ± 0.019; in series [2] (setting [7]), 0.354 ± 0.0096. The protein stability index came to 0.379 ± 0.025 in series [2] (setting [8]) and 0.62 ± 0.025 in series [2] (setting [9]).

Consider FVYFLLVVCFAF, for which the protein stability index in series [1] was 0.208 ± 0.011; in series [2] (setting [3]) it was 0.1671 ± 0.0012; in series [2] (setting [4]), 0.242 ± 0.014; in series [2] (setting [5]), 0.184 ± 0.028; in series [2] (setting [6]) it was 0.274 ± 0.0017; in series [2] (setting [7]) it was 0.157 ± 0.0085. Further, the protein stability index in series [2] (setting [8]) was determined as 0.166 ± 0.021; in series [2] (setting [9]), 0.249 ± 0.017.

In the case of FWESHVLPYRLL, the protein stability index in series [1] is 0.239 ± 0.045; in series [2] (setting [3]), 0.654 ± 0.036; in series [2] (setting [4]), 0.78233 ± 0.00013; in series [2] (setting [5]), 0.644 ± 0.014; in series [2] (setting [6]), 0.7799 ± 0.0022; in series [2] (setting [7]), 0.19 ± 0.008. In addition, the protein stability index in series [2] (setting [8]) was 0.223 ± 0.018; in series [2] (setting [9]), 0.465 ± 0.028.
